Experimental data: the RNAGym collection of RNA variant scans (doi:10.1021/acssynbio.7b00057)

B1: Pistol ribozyme (parent)
chain: GGGUCGUUGUUCCAUAAUCGCGUGGAUAUGGCACGCAAGUUUCUACCGGGCACCGUAAAUGUCCGACUGGAGCCGUUCGGGCGGCUAUAAACAGACCUCAGGCCCGAAGCGUGGCGGCACCUGCCGCCGGUGGUAAAAAAGAUCGGAAGAGCACACGUCU

Variants of: B1
Test: aptazyme ON/OFF ratio, guanine; higher = stronger switching; co-transcriptional cleavage with and without guanine

Aptazyme ON/OFF ratio, 1.01:
U7G U8A G9U U10C U11C C13U
U7G U8A U10C U11C C13U

Aptazyme ON/OFF ratio, 1:
U7G U8A U10A U11C C13U

Aptazyme ON/OFF ratio, 1.18:
U7G U8A G9U U10G U11G C13U
U7G U8A U10A U11C C12U C13A
U7G U8A U10A U11C C12G C13U
U7G U8A U10A C12U

Aptazyme ON/OFF ratio, 2.69:
U7G U8A U10C

Aptazyme ON/OFF ratio, 1.54:
U7G U8A U10C U11A C12G

Aptazyme ON/OFF ratio, 1.29:
U7G U8A G9U U10C C12G C13G
U7G U8A U10C U11G C12U C13G
U7G U8A G9U U10G U11G C12G

Aptazyme ON/OFF ratio, 1.27:
U7G U8A U10C C12A C13G

Aptazyme ON/OFF ratio, 1.11:
U7G U8A U10C U11C
U7G U8A U10A U11G C12G C13G
U7G U8A G9U U10C U11A C12U
U7G U8A G9U U11A C13U
U7G U8A G9U U10G U11C C12A C13U
U7G U8A G9U U11A C12A C13G
U7G U8A G9U U10C C13A
U7G U8A U10A U11G C12A
U7G U8A G9U U11C C12G
U7G U8A U10C U11G C12G C13G

Aptazyme ON/OFF ratio, 1.15:
U7G U8A G9U U10A U11G C12G C13G
U7G U8A G9U U11G C12U C13U
U7G U8A U10A U11A C13G
U7G U8A G9U U11A C12A C13U
U7G U8A G9U U10G U11G C12U

Aptazyme ON/OFF ratio, 1.51:
U7G U8A G9U U10G

Aptazyme ON/OFF ratio, 1.14:
U7G U8A G9U U11A C12A
U7G U8A G9U U11A C12G
U7G U8A U10A U11G C12U

Aptazyme ON/OFF ratio, 1.5:
U7G U8A U10C C12A

Aptazyme ON/OFF ratio, 1.04:
U7G U8A G9U U10G U11C C13G
U7G U8A G9U U10G U11A C12U
U7G U8A G9U U10C C12U C13G
U7G U8A G9U U11A C12G C13U
U7G U8A G9U U11G C12U C13G
U7G U8A G9U U10G U11G C12U C13A

Aptazyme ON/OFF ratio, 1.09:
U7G U8A G9U U11G C12A C13A
U7G U8A G9U U11G C12A C13U
U7G U8A G9U U10A U11C C12G
U7G U8A G9U U10G U11A C12A
U7G U8A G9U U10G U11A C12G
U7G U8A G9U U10C U11G C13G
U7G U8A G9U U10C U11G C13U
U7G U8A G9U U11A C13A
U7G U8A U10C C13G
U7G U8A G9U U10C U11C C12G C13A
U7G U8A G9U U10C U11A C12G C13U
U7G U8A G9U U10C U11C C12A C13A
U7G U8A G9U U10C U11C C12A C13U
U7G U8A G9U U10C U11G C12U C13A

Aptazyme ON/OFF ratio, 1.06:
U7G U8A G9U U10C U11C C12U C13G
U7G U8A G9U U10C U11C C12U C13U
U7G U8A G9U U10G U11C C13A
U7G U8A G9U U10G U11C C13U
U7G U8A G9U U11A C12G C13G
U7G U8A G9U U11A C12G C13A
U7G U8A G9U U10C U11C C12G C13U
U7G U8A G9U U10C U11C C12G C13G
U7G U8A G9U U10G U11G C12U C13G
U7G U8A G9U U10C C13G
U7G U8A G9U U10C U11C
U7G U8A U10A U11C C13G

Aptazyme ON/OFF ratio, 1.26:
U7G U8A U10A U11G C12G C13A
U7G U8A U10A C12A
U7G U8A U10C U11G C13G
U7G U8A U10C U11G C12G C13A

Aptazyme ON/OFF ratio, 1.36:
U7G U8A U10A U11G C13G

Aptazyme ON/OFF ratio, 3.13:
U7G U8A G9U U10C

Aptazyme ON/OFF ratio, 1.42:
U7G U8A U10C U11G C12U C13U
U7G U8A U10C U11A C12U

Aptazyme ON/OFF ratio, 1.41:
U7G U8A G9U U10C U11A
U7G U8A U10C U11G C13U

Aptazyme ON/OFF ratio, 1.49:
U7G U8A U10C C13U

Aptazyme ON/OFF ratio, 1.19:
U7G U8A G9U U10C C12G C13U
U7G U8A U10A U11C C12U C13U
U7G U8A G9U U10G C13G
U7G U8A G9U U11C C12U
U7G U8A U10A U11G C12A C13G
U7G U8A G9U U10C U11G C12U C13U

Aptazyme ON/OFF ratio, 1.2:
U7G U8A U10C U11C C12A C13A
U7G U8A U10A U11A C13A
U7G U8A U10C U11G C12U C13A

Aptazyme ON/OFF ratio, 1.21:
U7G U8A G9U U10G C13U
U7G U8A U10A U11A C13U

Aptazyme ON/OFF ratio, 1.12:
U7G U8A G9U U10C C12U C13A
U7G U8A G9U U10C U11A C12A
U7G U8A G9U U10G U11G C12U C13U

Aptazyme ON/OFF ratio, 1.28:
U7G U8A U10G
U7G U8A G9U U10C C12G C13A
U7G U8A U10A U11C C12G C13A

Aptazyme ON/OFF ratio, 1.17:
U7G U8A G9U U11A C12U
U7G U8A G9U U10G U11G C13G
U7G U8A U10A U11G C12A C13A
U7G U8A U10A U11G C12A C13U

Aptazyme ON/OFF ratio, 2.3:
U7G U8A U10C U11A

Aptazyme ON/OFF ratio, 2.09:
U7G U8A U10C U11G

Aptazyme ON/OFF ratio, 1.33:
U7G U8A U10A C12A C13A
U7G U8A U10A U11G C12G

Aptazyme ON/OFF ratio, 1.47:
U7G U8A U10A C12G C13U

Aptazyme ON/OFF ratio, 1.02:
U7G U8A G9U U10C U11G C12G C13U
U7G U8A G9U U10C U11C C13G
U7G U8A G9U U10A U11G C12U C13U
U7G U8A G9U U11A C13G
U7G U8A G9U U11A C12U C13A

Aptazyme ON/OFF ratio, 1.07:
U7G U8A G9U U10C U11G C12G C13A
U7G U8A G9U U11C C12A C13G
U7G U8A G9U U10A U11G C12U C13A
U7G U8A U10A U11C C12G C13G
U7G U8A G9U U10C U11A C12G C13G
U7G U8A G9U U11A C12U C13G
U7G U8A G9U U11A C12U C13U
U7G U8A G9U U10C U11G C12U C13G

Aptazyme ON/OFF ratio, 1.3:
U7G U8A G9U U10G U11G C13A
U7G U8A U10A U11G C12G C13U
U7G U8A U10A C12A C13G
U7G U8A U10A C12G

Aptazyme ON/OFF ratio, 1.38:
U7G U8A U10A U11G C13U
U7G U8A G9U U10C C13U

Aptazyme ON/OFF ratio, 1.32:
U7G U8A U10C U11A C12A

Aptazyme ON/OFF ratio, 1.35:
U7G U8A U10A
U7G U8A G9U U10G C13A

Aptazyme ON/OFF ratio, 1.13:
U7G U8A G9U U10A U11G C12G C13A
U7G U8A G9U U10G C12U C13U
U7G U8A G9U U10C U11A C12G

Aptazyme ON/OFF ratio, 1.34:
U7G U8A U10C C12A C13U
U7G U8A U10C U11G C13A

Aptazyme ON/OFF ratio, 1.03:
U7G U8A G9U U10C U11C C12U C13A
U7G U8A G9U U10G C12U C13G
U7G U8A G9U U10A U11C C12U
U7G U8A G9U U10C U11C C13A
U7G U8A G9U U10C C12U C13U
U7G U8A U10A U11C C13A

Aptazyme ON/OFF ratio, 2.18:
U7G U8A U10C C12U

Aptazyme ON/OFF ratio, 1.22:
U7G U8A U10A C12G C13G

Aptazyme ON/OFF ratio, 1.05:
U7G U8A G9U U11G C12A C13G
U7G U8A G9U U10C U11G C12G C13G
U7G U8A G9U U10G C12U C13A
U7G U8A G9U U10A U11C C12A C13U
U7G U8A G9U U10G U11C C12A C13A
U7G U8A G9U U10G U11C C12A C13G
U7G U8A U10C U11C C13G
U7G U8A U10C U11C C13A
U7G U8A U10C U11G C12G C13U

Aptazyme ON/OFF ratio, 1.1:
U7G U8A G9U U11C C12A C13A
U7G U8A G9U U11G C12U C13A
U7G U8A G9U U10C U11G C13A
U7G U8A G9U U10C U11A C12G C13A

Aptazyme ON/OFF ratio, 1.23:
U7G U8A U10C U11C C12A C13U
U7G U8A U10A U11C C12U C13G
U7G U8A U10A C12G C13A
U7G U8A U10A U11G C13A
U7G U8A U10C C13A
U7G U8A G9U U10C U11C C12A C13G

Aptazyme ON/OFF ratio, 1.39:
U7G U8A U10C C12A C13A

Aptazyme ON/OFF ratio, 1.08:
U7G U8A G9U U10A U11G C12G C13U
U7G U8A U10A C12A C13U
U7G U8A G9U U10A U11G C12U C13G

Aptazyme ON/OFF ratio, 1.24:
U7G U8A G9U U10C U11G
U7G U8A G9U U10G U11G C12A

Aptazyme ON/OFF ratio, 1.46:
U7G U8A U10C C12G

Aptazyme ON/OFF ratio, 1.16:
U7G U8A G9U U11C C12A C13U
U7G U8A U10C U11C C12A C13G
U7G U8A G9U U11A C12A C13A
U7G U8A G9U U11C C12A
